Measured values as given in patent US12012446B2, “Epstein-Barr virus antibodies and uses thereof” (priority 2017, dated 2024).

B1: HB11: murine anti-EBV gp350 mAb, IgG1 κ; SEQ ID NO: 120 / 121; neutralizing (antibody, V domains shown)
VH: PSLVKPSQTLSLTCSVTGDSITSGFWNWIRKFPGNKLEYMGYISYSGSTYYNPSLKSRISITRDTSKNQYYLQLNSVTTEDTATYYCARGNGGNYDWYFDVWGAGTTVTVSSAKTTPPSVYPLAPGSAAQTNSMVTLG
VL: AIMSASLGEKVTMSCRASSSVNFMNWYQQKSDDSPKLLIYYISNLAPGVPARFSGSGSGNSYSLTISGMEGEDAATYYCQQFTSSPSWTFGGGTKLEIKRADAAPTV
modifications: heavy chain mAb HB11; light chain mAb HB11
notes: murine anti-EBV gp350 mAb, IgG1 κ; neutralizing
B2: m72A1: EBV anti-gp350 neutralizing mouse antibody purified from HB168 hybridoma (ATCC); SEQ ID NO: 100 / 101 (antibody, V domains shown)
VH: PELVKPGTSMKISCKASGSSFTDYTMNWMKQSHGKNLEWIGLINPYNGGTRYNQKFKGKATLTLDKSSSTAYMEVLSLTSEDSAVYYCAGGLRRVNWFAYWGQGTLVSVSAAKTTPPSVYPLAPGSAAQTNSMVTLG
VL: QAVLTQESALTTSPGETVTLTCRSSTGAVTTSNYANWVQEKPDHLFTGLIGGTNNRVPGVPARFSGSLIGDKAALTITGAQTEDEAIYFCVLWHSNHWVFGGGTKLTVL
modifications: heavy chain mAb 72A1; light chain mAb 72A1
B3: HB20: murine anti-EBV gp350 mAb, IgG2a κ; SEQ ID NO: 128 / 129; neutralizing (antibody, V domains shown)
VH: ELVKPGASVKLSCKASGYTFTSYWIQWVKQRPGQGLEWIGEINPTNGHTNYNEKFKTKATLTVDKSSSTAYMRLSSLTSEDSAVYYCARNLYYYGRPDYWGQGTSVTVSSAKTTAPSVYPLAPVCGDTTGSSVTLG
VL: SSLSASLGDRVTISCRASQDIGNYLNWYQQKPDGTVKLLIYYTSRLHSGVPSRFSGSGSGTDYSLTISNLEQEDIATYFCQQGNALPPTFGGGTKLEIKRADAAPTV
modifications: heavy chain mAb HB20; light chain mAb HB20
notes: murine anti-EBV gp350 mAb, IgG2a κ; neutralizing
B4: h72A1: humanized 72A1 IgG1; heavy and light chain SEQ ID NOs: 180 and 181 (antibody, V domains shown)
VH: EVQLVESGGGLVQPGGSLRLSCAASGSSFTDYTMNWMRQSPGKGLEWIGLINPYNGGTRYADSVKGRATLSLDKSKNTAYLQMNSLRAEDTAIYYCAGGLRRVNWFAYWGQGTLVTVSS
VL: DAQLTQSPILLSASVGDRVTITCRSSTGAVTTSNYANWVQERTNGSFRGLIGGTNNRVPGVPSRFSGSLSGDDATLTISSLQPEDEADYFCVLWHSNHWVFGAGTKVEIKR
B5: HB5: murine anti-EBV gp350 mAb, IgG2a κ; SEQ ID NO: 108 / 109; neutralizing (antibody, V domains shown)
VH: AELVRPGASVKISCKAFGYTFTNHNINWVKQRPGQGLDWIGYINPYNDYTSYNQKFKGKATLTVDKSSNTAYMELSSLTSEDSAVYYCARSEGWLRRGAWFAYWGQGTLVTVSAAKTTAPSVYPLAPVCGDTTGSSVTLG
VL: AILSVSPGERVSFSCRASQSIGTSIHWYQQRTNDSPRLLIKYASESISGIPPRFSGSGSGTDFTLSINSVESEDIADYHCQQSNSWPMLTFGAGTKLELKRADAAPTV
modifications: heavy chain mAb HB5; light chain mAb HB5
notes: as for B3

How the values were obtained:
[1] = molecular target: T1, EBV gp350 stably expressed on CHO cells (Epstein-Barr virus, UniProt P03200); assay: Epitope mapping by competitive cell binding assay with biotinylated mAbs; conditions: for competitive binding versus m72A1 and h72A1 (in words): biotinylated antibodies; for antigen binding competition with biotinylated m72A1 (in words) / % inhibition of biotinylated nAbs (biotinylated m72A1): biotinylated m72A1 1 μg/ml; for antigen binding competition with biotinylated m72A1 (in words): unlabeled mAbs 500-67.5 μg/ml; for % inhibition of biotinylated 54A1: 1 μg/ml biotinylated 54A1, 500 μg/ml unlabeled mAb; for % inhibition of biotinylated HB1: 1 μg/ml biotinylated HB1, 500 μg/ml unlabeled mAb; for % inhibition of biotinylated HB5: 1 μg/ml biotinylated HB5, 500 μg/ml unlabeled mAb; for % inhibition of biotinylated HB11: 1 μg/ml biotinylated HB11, 500 μg/ml unlabeled mAb; for % inhibition of biotinylated HB17: 1 μg/ml biotinylated HB17, 500 μg/ml unlabeled mAb; for % inhibition of biotinylated HB20: 1 μg/ml biotinylated HB20, 500 μg/ml unlabeled mAb; for % inhibition of biotinylated h72A1: 1 μg/ml biotinylated h72A1, 500 μg/ml unlabeled mAb; for % inhibition of biotinylated m72A1: cross-competition, 1 μg/ml biotinylated m72A1, 500 μg/ml unlabeled mAb
T1 construct: stably co-transfected with full-length pCAGGS-gp350/220 and pCI-puro vector; expressed in transfected cells; host or cells: CHO cells
Method: To evaluate conformation epitope mapping of the selected mAbs, competitive binding assays were conducted using biotinylated mAbs. A one-step antibody biotinylation kit (MACS Miltenyi Biotec) was used to biotinylate the mAbs. Approximately 1×10^5 CHO cells that stably expressed EBV gp350 were incubated for 2 hours with serially diluted ([…]) unlabeled competitor mAbs and non-specific anti-KSHV gH/gL 54A1 mAb. After being washed with PBS, the cells were incubated for 2 hours in the presence of 1 μg/ml biotinylated mAbs. To determine maximum binding, cells in which the biotinylated mAb was added in the absence of unlabeled mAbs were included in the assay. Cells were washed with PBS, followed by incubation for 1 hour with anti-biotin AF488 at a dilution of 1:500. After the final wash in PBS, cells were resuspended in 1% paraformaldehyde and analyzed by flow cytometry as described above. Percentage of inhibition was calculated as: 100−[(% fluorescent cells with competitor mAb/% fluorescent cells without competitor mAb)×100]. The complete prevention of binding of a biotinylated mAb by its unlabeled counterpart was used as a validation of the assay, as previously described (84).
At least seven unique CD21 binding epitopes on EBV gp350 have been predicted (Table 3).

[2] = system: EBV gp350 20-mer linear peptides (gp350 regions); assay type: binding, Epstein-Barr virus; conditions: 10 μg/ml mAb, 10 μg/ml peptide
Method: (§1) Forty-five sequential 20-mer linear peptides, covering the whole sequence of gp350 (GenBank: NC_007605.1), with an exception of aa 862-881, were synthesized using a solid phase method and cleaved using a low-high hydrogen fluoride method by the GenicBio, as previously described (58).
(§2) The binding of anti-gp350 mAbs to 45 synthesized 20-mer sequential peptides covering the total length of gp350 was analyzed using indirect ELISA as described (58). Briefly, immunoplates were coated with 50 μl of 10 μg/ml EBV gp350 peptides (forty-five 20-mers) diluted in PBS and incubated overnight at 4° C.; 0.5 μg/ml recombinant EBV gp350 ectodomain protein was used as a positive control. After washing three times with washing buffer (PBS containing 0.05% (v/v) Tween 20), plates were blocked with 100 μl washing buffer containing 3% BSA (blocking buffer), incubated for 1 hour at room temperature, and washed as above. Ten μg/ml purified mAbs were added to each well in triplicate and incubated for 2 hours at room temperature. […] The plates were washed as described above, followed by incubation with goat anti-mouse IgG or goat anti-human IgG HRP-conjugated secondary antibody (1:2,000 diluted in PBS) at room temperature for 1 hour. The plates were washed again and the chromogenic substrate ABTS was added. The reaction was stopped using ABTS peroxidase stop solution. The absorbance was read at an optical density of 405 nm using an ELISA plate reader.
(§3) The peptide library, consisting of 20-mer peptides, covered the entire gp350 protein, with the exception of AA 862-881 (Table 9).
(§4) Purified recombinant gp350 ectodomain was used as a control to validate the binding activity for all of the antibodies used. The overall gp350 sequence was divided into nine different regions consisting of ˜100 AA (FIG. 7).

goat anti-mouse IgG = assay: ELISA for reactivity to anti-mouse IgG (HAMA testing); assay type: binding; conditions: 10 μg/ml antibody on gp350-coated plates
Text: (§5) ClustalW alignment of heavy chain (i) and light chain (ii) variable region amino acid sequences. Murine 72A1 heavy chain and light chain AA sequences are represented by SEQ ID NOs: 178 and 179, respectively, and humanized 72A1 heavy chain and light chain AA sequences are represented by SEQ ID NOs: 180 and 181, respectively. Regions of identical sequence are represented by *. Regions of similarity are represented by :. […] FIG. 4C: ELISA determining the reactivity of humanized 72A1 to murine IgG. Soluble EBV gp350 protein was used as the target antigen at 0.5 μg/ml. […] Bound antibodies were detected using HRP-conjugated anti-mouse IgG or anti-human IgG (1:2,000). […] Unstained cells and cells stained with secondary goat anti-mouse or anti-human conjugated to AF488 alone were used as negative controls.
(§6) ELISA was performed to determine the reactivity of chimeric and humanized antibodies to murine IgG. Soluble EBV gp350 or gH/gL protein was used as the target antigen at 0.5 μg/ml. […] Bound antibodies were detected using HRP-conjugated anti-mouse IgG or anti-human IgG (1:2,000). […] To determine whether chimeric and humanized anti-gp350 retained the ability to recognize linear epitopes on gp350, lysate from CHO WT cells and CHO cell stably expressing gp350 were analyzed by western blot analysis.

EBV [3] = conditions: SCID mice with PBMC from EBV-naïve donors; cited from earlier work
EBV [4] = conditions: small phase 1 clinical trial; cited from earlier work
goat anti-human IgG = assay: ELISA for reactivity to anti-human IgG (HAMA testing); assay type: binding; conditions: 10 μg/ml antibody on gp350-coated plates
Text: as §5, §6

[5] = molecular target: T2, EBV gp350 20-mer linear peptides (gp350 regions) (Epstein-Barr virus, UniProt P03200); assay type: binding
T2 construct: purchased GenicBio; host or cells: chemical solid-phase synthesis
Method: as §1, §2, §3, §4

T1 sequence (P03200 whole entry): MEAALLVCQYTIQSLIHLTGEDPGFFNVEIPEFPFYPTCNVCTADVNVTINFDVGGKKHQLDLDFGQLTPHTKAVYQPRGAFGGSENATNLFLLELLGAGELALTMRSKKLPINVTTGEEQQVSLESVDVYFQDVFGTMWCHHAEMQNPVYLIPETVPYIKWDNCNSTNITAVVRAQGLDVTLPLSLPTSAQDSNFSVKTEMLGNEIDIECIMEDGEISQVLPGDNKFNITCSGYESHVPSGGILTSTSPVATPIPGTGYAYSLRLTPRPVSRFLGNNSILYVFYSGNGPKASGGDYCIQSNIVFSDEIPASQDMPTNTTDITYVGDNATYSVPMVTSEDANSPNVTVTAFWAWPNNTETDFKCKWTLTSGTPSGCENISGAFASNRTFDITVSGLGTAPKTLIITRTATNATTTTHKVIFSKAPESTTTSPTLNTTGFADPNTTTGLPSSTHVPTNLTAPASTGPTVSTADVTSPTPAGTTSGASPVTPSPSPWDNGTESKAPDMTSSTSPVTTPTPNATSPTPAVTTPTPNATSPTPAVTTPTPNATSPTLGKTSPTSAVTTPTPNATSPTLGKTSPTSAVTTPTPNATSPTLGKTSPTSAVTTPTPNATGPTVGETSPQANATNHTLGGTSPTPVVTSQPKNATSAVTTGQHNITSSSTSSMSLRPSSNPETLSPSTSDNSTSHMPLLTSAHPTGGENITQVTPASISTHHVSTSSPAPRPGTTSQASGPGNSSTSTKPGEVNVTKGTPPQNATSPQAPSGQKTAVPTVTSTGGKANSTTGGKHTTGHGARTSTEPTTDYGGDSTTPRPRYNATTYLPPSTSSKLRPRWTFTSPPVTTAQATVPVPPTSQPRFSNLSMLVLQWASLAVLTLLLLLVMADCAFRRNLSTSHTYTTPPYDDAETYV
T2 sequence (P03200 142-161): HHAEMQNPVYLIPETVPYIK

| Molecule | competitive binding versus m72A1 and h72A1 (in words) [1] | antigen binding competition with biotinylated m72A1 (in words) [1] | binding to gp350 region AA 102-201 (linear peptides) [2] | reactivity to goat anti-mouse IgG above the background (1×PBS) (goat anti-mouse IgG) | % inhibition of biotinylated 54A1 [1] [%] | % inhibition of biotinylated HB1 [1] [%] | % inhibition of biotinylated HB5 [1] [%] | % inhibition of biotinylated HB11 [1] [%] | % inhibition of biotinylated HB17 [1] [%] | % inhibition of biotinylated HB20 [1] [%] | % inhibition of biotinylated h72A1 [1] [%] | % inhibition of biotinylated m72A1 [1] [%] | % inhibition of biotinylated nAbs (biotinylated m72A1) ([1]; unlabeled mAb 67.5 μg/ml) [%] | % inhibition of biotinylated nAbs (biotinylated m72A1) ([1]; unlabeled mAb 125 μg/ml) [%] | % inhibition of biotinylated nAbs (biotinylated m72A1) ([1]; unlabeled mAb 250 μg/ml) [%] | % inhibition of biotinylated nAbs (biotinylated m72A1) ([1]; unlabeled mAb 500 μg/ml) [%] | also measured |
| --- | --- | --- | --- | --- | --- | --- | --- | --- | --- | --- | --- | --- | --- | --- | --- | --- | --- |
| B1 | bound targets that overlapped with those of both m72A1 and h72A1 | Antigen binding competition was observed | bound |  |  |  |  |  |  |  |  |  |  |  |  |  |  |
| B2 |  |  | bound | 28 fold | 1 | 82 | 97 | 90 | 37 | 31 | 98 | 98 | 97 | 94 | 93 | 91 | reactivity to goat-anti-mouse IgG as compared to goat anti-human IgG (goat anti-mouse IgG): 9 fold; protection against EBV and development of EBV+ tumors or PTLD-like lesions (EBV [3]): completely protected; patients developing a hypersensitivity reaction (EBV [4]): one; patients who developed human anti-mouse Abs (HAMA) (EBV [4]): all 4; short-term protection against acquiring EBV after transplantation (EBV [4]): 3 out of 4 |
| B3 | only partial binding to the overlapping targets | Antigen binding competition was observed | bound |  |  |  |  |  |  |  |  |  |  |  |  |  |  |
| B4 |  | Antigen binding competition was observed | bound | did not react at all | 0 | 87 | 97 | 79 | 31 | 26 | 98 | 98 | 89 | 93 | 95 | 98 | reactivity to goat anti-human IgG over the background (goat anti-human IgG): 2100 fold; recognition of gp350 peptides of the principal neutralizing epitope (142-161) [5]: recognized both native gp350 as well as gp350 peptides that constitute the principal gp350 neutralizing epitope (142-161) |
| B5 | bound targets that overlapped with those of both m72A1 and h72A1 | Antigen binding competition was observed | bound |  |  |  |  |  |  |  |  |  |  |  |  |  |  |
